{
  "source": "patent EP0251446B1",
  "about": "“Non-human Carbonyl hydrolase mutants, DNA sequences and vectors encoding same and hosts transformed with said vectors” (GENENCOR INTERNATIONAL, INC., priority 1986, dated 1988)",
  "proteins": {"B1": {"name": "B. amyloliquefaciens subtilisin, wild type (WT, Gly166) (Bacillus amyloliquefaciens) (protein)", "chain": "AQSVPYGVSQIKAPALHSQGYTGSNVKVAVIDSGIDSSHPDLKVAGGASMVPSETNPFQDNNSHGTHVAGTVAALNNSIGVLGVAPSASLYAVKVLGADGSGQYSWIINGIEWAIANNMDVINMSLGGPSGSAALKAAVDKAVASGVVVVAAAGNEGTSGSSSTVGYPGKYPSVIAVGAVDSSNQRASFSSVGPELDVMAPGVSIQSTLPGNKYGAYNGTSMASPHVAGAAALILSKHPNWTNTQVRSSLENTTTKLGDSFYYGKGLINVQAAAQ", "notes": "at various amino acid residues within the mature form of the subtilisin molecule; made in house; host or cells: Bacillus subtilis (secreted, culture supernatant)"}},
  "experiment_in_all_cases": "Kinetics of hydrolysis of succinyl-Ala-Ala-Pro-X-p-nitroanilide substrates (progress curve analysis)",
  "format_in_all_cases": "biochemical, B. amyloliquefaciens",
  "key": {"[1]": {"substrate": "CC(C)C[C@H](NC(=O)[C@@H]1CCCN1C(=O)[C@H](C)NC(=O)[C@H](C)NC(=O)CCC(=O)O)C(=O)Nc1ccc([N+](=O)[O-])cc1", "details": "other: Table VIII; substrate succinyl-L-AlaL-AlaL-ProL-[X]-p-nitroanilide, X = label (P1 amino acid)", "description": "(§1) A change in substrate specificity is defined as a difference between the kcat/Km ratio of the precursor carbonyl hydrolase and that of the hydrolase mutant. The kcat/Km ratio is a measure of catalytic efficienty. Carbonyl hydrolase mutants with increased or diminished kcat/Km ratios are described in the examples. Generally, the objective will be to secure a mutant having a greater (numerically large) kcat/Km ratio for a given substrate, thereby enabling the use of the enzyme to more efficiently act on a target substrate. A substantial change in kcat/Km ratio is preferably at least 2-fold increase or decrease. However, smaller increases or decreases in the ratio (e.g., at least 1.5-fold) are also considered substantial. An increase in kcat/Km ratio for one substrate may be accompanied by a reduction in kcat/Km ratio for another substrate. […] Km and kcat are measured in accord with known procedures, as described in EPO Publication No. 0130756 or as described herein.\n(§2) Wild-type subtilisin was purified from B. subtilis culture supernatants expressing the B. amyloliquefaciens subtilisin gene (Wells, J.A., et al. (1983) Nucleic Acids Res. 11, 7911-7925) as previously described (Estell, D.A., et al. (1985) J. Biol. Chem. 260, 6518-6521). Details of the synthesis of tetrapeptide substrates having the form succinyl-L-AlaL-AlaL-ProL-[X]-p-nitroanilide (where X is the P1 amino acid) are described by DelMar, E.G., et al. (1979) Anal. Biochem. 99, 316-320. Kinetic parameters, Km(M) and kcat-(s-^1) were measured using a modified progress curve analysis (Estell, D.A., et al. (1985) J. Biol. Chem. 260, 6518-6521). Briefly, plots of rate versus product concentration were fit to the differential form of the rate equation using a non-linear regression algorithm. Errors in kcat and Km for all values reported are less than five percent. The various substrates in Table VIII are ranged in order of decreasing hydrophobicity. Nozaki, Y. (1971), J. Biol. Chem. 246, 2211-2217; Tanford C. (1978) Science 200, 1012)."}, "[2]": {"substrate": "CSCC[C@H](NC(=O)[C@@H]1CCCN1C(=O)[C@H](C)NC(=O)[C@H](C)NC(=O)CCC(=O)O)C(=O)Nc1ccc([N+](=O)[O-])cc1", "details": "other: Table XIV, 156 Glu / 166 Gly(wt); value in parentheses; synthetic substrate with label as P-1 amino acid", "description": "as §1, §2"}, "[3]": {"substrate": "C[C@H](NC(=O)CCC(=O)O)C(=O)N[C@@H](C)C(=O)N1CCC[C@H]1C(=O)NCC(=O)Nc1ccc([N+](=O)[O-])cc1", "details": "other: Table VIII; substrate succinyl-L-AlaL-AlaL-ProL-[X]-p-nitroanilide, X = label (P1 amino acid)", "description": "as §1, §2"}, "[4]": {"substrate": "C[C@H](NC(=O)CCC(=O)O)C(=O)N[C@@H](C)C(=O)N1CCC[C@H]1C(=O)N[C@@H](C)C(=O)Nc1ccc([N+](=O)[O-])cc1", "description": "as §1, §2"}, "[5]": {"substrate": "C[C@H](NC(=O)CCC(=O)O)C(=O)N[C@@H](C)C(=O)N1CCC[C@H]1C(=O)N[C@@H](CCC(=O)O)C(=O)Nc1ccc([N+](=O)[O-])cc1", "description": "as §1, §2"}, "[6]": {"substrate": "C[C@H](NC(=O)CCC(=O)O)C(=O)N[C@@H](C)C(=O)N1CCC[C@H]1C(=O)N[C@@H](CCC(N)=O)C(=O)Nc1ccc([N+](=O)[O-])cc1", "details": "other: Table XIV, 156 Glu / 166 Gly(wt); value in parentheses; synthetic substrate with label as P-1 amino acid", "description": "as §1, §2"}, "[7]": {"substrate": "C[C@H](NC(=O)CCC(=O)O)C(=O)N[C@@H](C)C(=O)N1CCC[C@H]1C(=O)N[C@@H](CCCCN)C(=O)Nc1ccc([N+](=O)[O-])cc1", "details": "other: Table XIV, 156 Glu / 166 Gly(wt); value in parentheses; synthetic substrate with label as P-1 amino acid", "description": "as §1, §2"}, "[8]": {"substrate": "C[C@H](NC(=O)CCC(=O)O)C(=O)N[C@@H](C)C(=O)N1CCC[C@H]1C(=O)N[C@@H](CO)C(=O)Nc1ccc([N+](=O)[O-])cc1", "details": "other: Table VIII; substrate succinyl-L-AlaL-AlaL-ProL-[X]-p-nitroanilide, X = label (P1 amino acid)", "description": "as §1, §2"}, "[9]": {"substrate": "C[C@H](NC(=O)CCC(=O)O)C(=O)N[C@@H](C)C(=O)N1CCC[C@H]1C(=O)N[C@@H](Cc1c[nH]cn1)C(=O)Nc1ccc([N+](=O)[O-])cc1", "details": "other: Table VIII; substrate succinyl-L-AlaL-AlaL-ProL-[X]-p-nitroanilide, X = label (P1 amino acid)", "description": "as §1, §2"}, "[10]": {"substrate": "C[C@H](NC(=O)CCC(=O)O)C(=O)N[C@@H](C)C(=O)N1CCC[C@H]1C(=O)N[C@@H](Cc1ccc(O)cc1)C(=O)Nc1ccc([N+](=O)[O-])cc1", "details": "other: Table VIII; substrate succinyl-L-AlaL-AlaL-ProL-[X]-p-nitroanilide, X = label (P1 amino acid)", "description": "as §1, §2"}, "[11]": {"substrate": "C[C@H](NC(=O)CCC(=O)O)C(=O)N[C@@H](C)C(=O)N1CCC[C@H]1C(=O)N[C@@H](Cc1ccccc1)C(=O)Nc1ccc([N+](=O)[O-])cc1", "details": "other: Table V; substrate not given; Km in M", "description": "as §1, §2"}, "[12]": {"substrate": "C[C@H](NC(=O)[C@@H]1CCCN1C(=O)[C@H](C)NC(=O)[C@H](Cc1ccccc1)NC(=O)CCC(=O)O)C(=O)Nc1ccc([N+](=O)[O-])cc1", "details": "other: Table XI, WT", "description": "as §1, §2"}, "[13]": {"substrate": "C[C@H](NC(=O)[C@H](Cc1ccccc1)NC(=O)CCC(=O)O)C(=O)N1CCC[C@H]1C(=O)N[C@@H](Cc1ccccc1)C(=O)Nc1ccc([N+](=O)[O-])cc1", "details": "other: Table XI, WT", "description": "as §1, §2"}, "[14]": {"details": "other: Table VIII, substrate succinyl-L-AlaL-AlaL-ProL-[X]-p-nitroanilide, X = label (P1 amino acid)"}, "[15]": {"details": "other: Table XIII, Glu156/Gly166 (WT), synthetic substrate with label as P-1 residue"}},
  "data": [
    {"protein": "B1", "values": [
      {"measurement": "kcat", "setting": "[1]", "result": 24, "unit": "S^-1"},
      {"measurement": "kcat/Km", "setting": "[1]", "result": "75,000 s-^1M-1"},
      {"measurement": "Km", "setting": "[2]", "result": 107, "unit": "µM"},
      {"measurement": "kcat", "setting": "[2]", "result": 13, "unit": "S^-1"},
      {"measurement": "kcat/Km", "setting": "[2]", "result": "120,000 s-^1M-1"},
      {"measurement": "kcat", "setting": "[3]", "result": 0.003, "unit": "S^-1"},
      {"measurement": "kcat/Km", "setting": "[3]", "result": "21 s-^1M-1"},
      {"measurement": "kcat", "setting": "[4]; [14]", "result": 1.9, "unit": "S^-1"},
      {"measurement": "kcat/Km", "setting": "[4]; [14]", "result": "11,000 s-^1M-1"},
      {"measurement": "Km", "setting": "[4]; other: Table XI, WT", "result": 230, "unit": "µM"},
      {"measurement": "kcat", "setting": "[4]; other: Table XI, WT", "result": 3.2, "unit": "s-^1"},
      {"measurement": "kcat/Km", "setting": "[4]; other: Table XI, WT", "result": 14000, "unit": "M⁻¹ s⁻¹"},
      {"measurement": "Km", "setting": "[5]; [15]", "result": 34000, "unit": "µM"},
      {"measurement": "kcat", "setting": "[5]; [15]", "result": 0.54, "unit": "s-^1"},
      {"measurement": "kcat/Km", "setting": "[5]; [15]", "result": 16, "unit": "M⁻¹ s⁻¹"},
      {"measurement": "Km", "setting": "[5]; other: Table XIV, 156 Glu / 166 Gly(wt), value in parentheses, synthetic substrate with label as P-1 amino acid", "result": 33900, "unit": "µM"},
      {"measurement": "Km", "setting": "[6]", "result": 447, "unit": "µM"},
      {"measurement": "kcat", "setting": "[6]", "result": 3.2, "unit": "S^-1"},
      {"measurement": "kcat/Km", "setting": "[6]", "result": "7,100 s-^1M-1"},
      {"measurement": "Km", "setting": "[7]", "result": 741, "unit": "µM"},
      {"measurement": "kcat", "setting": "[8]", "result": 2.8, "unit": "S^-1"},
      {"measurement": "kcat/Km", "setting": "[8]", "result": "4,200 s-^1M-1"},
      {"measurement": "kcat", "setting": "[9]", "result": 7.9, "unit": "S^-1"},
      {"measurement": "kcat/Km", "setting": "[9]", "result": "13,000 s-^1M-1"},
      {"measurement": "kcat", "setting": "[10]", "result": 28, "unit": "S^-1"},
      {"measurement": "kcat/Km", "setting": "[10]", "result": "1,100,000 s-^1M-1"},
      {"measurement": "Km", "setting": "[11]", "result": 140, "unit": "µM"},
      {"measurement": "kcat", "setting": "[11]", "result": 50.0, "unit": "s-^1"},
      {"measurement": "kcat/Km", "setting": "[11]", "result": 360000, "unit": "M⁻¹ s⁻¹"},
      {"measurement": "Km", "setting": "[12]", "result": 73, "unit": "µM"},
      {"measurement": "kcat", "setting": "[12]", "result": 0.32, "unit": "s-^1"},
      {"measurement": "kcat/Km", "setting": "[12]", "result": 4400, "unit": "M⁻¹ s⁻¹"},
      {"measurement": "Km", "setting": "[13]", "result": 180, "unit": "µM"},
      {"measurement": "kcat", "setting": "[13]", "result": 26.0, "unit": "s-^1"},
      {"measurement": "kcat/Km", "setting": "[13]", "result": 150000, "unit": "M⁻¹ s⁻¹"}
    ]}
  ]
}
